Experimental data published in PMC5551578 (The Journal of Experimental Medicine, 2017).

B1: TT-Ab12 (antibody, V domains shown)
VH: QVQLQESGPGLVKPSETLSLTCNVSGASISRYYWAWIRQPPGKGLEWIGYIYDSGTTTYNTSLKSRVTISRDTSKNQFSLNMMSVTAADTAVYYCARARYYYDSTGYFYGWLDPWGQGRLVTVSF
VL: DIQMTQSPSTLSASVGDRVTITCRASQSINIWLAWYQQRPGKAPDLLIYKASTLQSGVPSRFSGSGSGTEFTLTISSVQPDDFATYYCQQYKSYSCSFGQGTKVEIN
notes: IgG1
B2: TT-Ab3 (antibody, V domains shown)
VH: EVQLVQSGAEVKKPGSSVKVSCKVSGGAFNSYAISWVRQAPGQGLEWMGGIIPILRTANYTEKFQGRVTINADKSTNTAYMELSKLRSEDTAVYYCARVWGTTVTKGPSQIKYYYYGMDVWGQGTTVTVSS
VL: DIQMTQSPSSLSASVGDRVTISCRASQSISNYLNWYHQKPGKAPKLLIYAASSLQSGVPSRFSGSGSGTDFTLTISSLQPEDFATYYCQQSYSTPLTFGGGTKVEIK
notes: IgG1
B3: TT-Ab7 (antibody, V domains shown)
VH: EVQLVESGGGWVQPGGSLRLSCAASGFTFNSFGSYGMSWVRQAPGKGLEWVSHISASGAATYYADSVKGRFTISRDNSKNTLLLQMNDLRGEDTATYYCARSVQQYLGLLGYWGQGTLVTVSS
VL: QSVLTQSPSASASLGATVKLTCTLSSGHTNYAIAWHQLQPQKAPRYLLKISNDGSHKRGDGIPDRFSGSSSGAERYLTISSLQSEDEAEYYCQTWGAGMGMFGGGTKLTVL
notes: IgG1
B4: TT-Ab4 (antibody, V domains shown)
VH: EVQLVQSGAEMKKPGSSVKVSCRMSGGKFNNYAMSWVRQAPGQGLEWVGGIIPVLGTANYAQKFQDRVAITADKSTNTAYMELSSLRSDDTAVYYCARVWGTVVTQGPSQVQYNHYGMDVWGQGTTVTVSS
VL: DIQLTQSPSSLSASVGDRVTITCRATQSISSSLNWYQHKPGKAPNLLISAASNLQSGVPSRFSGSGSRTDFTLTITNLQPEDFATYYCQQSYTTPLTFGGGTKVEIK
notes: IgG1
B5: TT-Ab9 (antibody, V domains shown)
VH: EVQLVESGGSLVQPGGSLRLSCVGTGFTFNTYWMSWVRQAPGKGLEWVANIKQDGREKHYVDSVMGRFTVSRDNAMNALYLQVNSLRVEDTAVYYCARGMTAWSLGGYQYDYWGQGTQVTVSS
VL: DIQMTQSPSSLSASVGDTVTITCRASQGIRSDLGWYQQRPGKAPKLLVYTASTLQTGVPSRFSGSGFGTDFTLTISSLQPEDFATYYCLQNYNYPRTFGQGTKVEIK
notes: IgG1
B6: TT-Ab10 (antibody, V domains shown)
VH: EVQLVESGGGLVQPGGSLRVSCGASGFTFANFWMSWVRQAPGKGLEWVANINQDGNERKYVDSVKGRFTISRDNDKNSLYLQMNSLRAEDTAVYFCAREYGSYWRTYYFDDWGQGTLVTVSS
VL: DIVMTQSPATLSLSPGERATLSCRASQSVSNYLAWYQQKPGQAPRLLIYDASNRASGTPARFSGSGFGTDFTLTISSLDPEDFAVYYCQQGSNWLTFGGGTKVEIK
notes: IgG1

Target: T1, tetanus toxoid (Clostridium tetani, production strain …, UniProt P04958, biotin (biotinylated antigen))
T1 construct: also called TT
T1 sequence (P04958 whole entry): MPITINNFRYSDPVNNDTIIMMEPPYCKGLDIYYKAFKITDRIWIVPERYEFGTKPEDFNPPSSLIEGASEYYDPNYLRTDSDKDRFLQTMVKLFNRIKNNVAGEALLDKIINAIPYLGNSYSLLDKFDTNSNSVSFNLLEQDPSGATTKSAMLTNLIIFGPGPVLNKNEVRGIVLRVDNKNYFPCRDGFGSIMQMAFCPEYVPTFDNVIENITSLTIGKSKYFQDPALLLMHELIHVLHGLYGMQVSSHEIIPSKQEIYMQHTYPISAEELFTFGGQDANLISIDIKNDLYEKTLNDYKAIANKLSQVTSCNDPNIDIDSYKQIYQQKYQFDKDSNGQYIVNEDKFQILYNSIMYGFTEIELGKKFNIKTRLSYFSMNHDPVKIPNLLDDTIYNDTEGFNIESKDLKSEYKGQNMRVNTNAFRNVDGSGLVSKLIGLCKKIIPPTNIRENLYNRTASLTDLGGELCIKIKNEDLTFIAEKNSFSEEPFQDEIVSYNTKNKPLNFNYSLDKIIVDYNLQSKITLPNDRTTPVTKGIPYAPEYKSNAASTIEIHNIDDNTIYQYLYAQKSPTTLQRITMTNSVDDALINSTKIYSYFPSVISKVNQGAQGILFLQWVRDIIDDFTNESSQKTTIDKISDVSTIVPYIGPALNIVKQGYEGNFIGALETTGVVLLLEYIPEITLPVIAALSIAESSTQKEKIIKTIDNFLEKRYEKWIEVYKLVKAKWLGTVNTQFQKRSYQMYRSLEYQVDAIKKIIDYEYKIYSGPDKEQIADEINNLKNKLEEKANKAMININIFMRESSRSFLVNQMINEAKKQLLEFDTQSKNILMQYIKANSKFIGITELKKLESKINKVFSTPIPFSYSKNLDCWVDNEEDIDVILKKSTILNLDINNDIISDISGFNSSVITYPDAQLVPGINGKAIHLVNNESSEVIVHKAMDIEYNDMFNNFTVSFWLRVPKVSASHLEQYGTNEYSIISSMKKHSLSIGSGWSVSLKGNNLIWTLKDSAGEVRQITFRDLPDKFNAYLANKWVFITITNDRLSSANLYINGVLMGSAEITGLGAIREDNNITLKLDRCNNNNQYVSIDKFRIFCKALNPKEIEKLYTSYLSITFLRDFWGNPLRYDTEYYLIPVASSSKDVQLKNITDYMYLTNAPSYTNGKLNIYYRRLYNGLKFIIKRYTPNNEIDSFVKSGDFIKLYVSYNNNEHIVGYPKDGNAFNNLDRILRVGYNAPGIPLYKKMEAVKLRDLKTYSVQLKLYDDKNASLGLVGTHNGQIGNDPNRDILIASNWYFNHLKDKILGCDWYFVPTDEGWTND
Assay: BLI

| Binder | Kd [nM] | koff [s⁻¹] |
| --- | --- | --- |
| B1 | 1.95 | 0.000307 |
| B2 | 1.61 | 0.00013 |
| B3 | 0.0185 | 3.46e-06 |
| B4 | 0.0137 | 2.27e-06 |
| B5 | 6.64 | 0.000919 |
| B6 | 1.59 | 0.000243 |
